Assay results taken from paper PMC6555819, “Comprehensive study of nuclear receptor DNA binding provides a revised framework for understanding receptor specificity”.

Target: THRa:RXRa (Homo sapiens, UniProt P10827;P19793 full;full)
Assay: no ligand; PBM; 90 nM : 90 nM RXRa; PBS pH 7.4, 2% milk, 0.02% Triton X-100, 1 mM DTT, BSA, 0.4 mg/ml salmon testes DNA
Conditions: tags: His kept;His cleaved; copies: 1;1; label: surface-attached array probe

Chain of THRa:RXRa (P10827 other isoform, or with tags, fused parts or gaps, chain 1 of 2): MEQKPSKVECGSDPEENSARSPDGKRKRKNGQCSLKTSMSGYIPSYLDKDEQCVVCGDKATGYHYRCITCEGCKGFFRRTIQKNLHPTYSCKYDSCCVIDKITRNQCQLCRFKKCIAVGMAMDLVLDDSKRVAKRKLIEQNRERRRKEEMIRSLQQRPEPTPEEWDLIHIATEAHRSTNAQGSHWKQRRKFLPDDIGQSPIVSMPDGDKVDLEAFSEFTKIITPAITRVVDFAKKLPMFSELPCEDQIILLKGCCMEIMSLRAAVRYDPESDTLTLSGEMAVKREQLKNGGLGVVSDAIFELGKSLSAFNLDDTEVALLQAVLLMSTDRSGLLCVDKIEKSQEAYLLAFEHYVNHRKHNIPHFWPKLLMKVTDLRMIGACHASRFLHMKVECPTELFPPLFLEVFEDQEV
Chain of THRa:RXRa (P19793 whole entry, chain 2 of 2): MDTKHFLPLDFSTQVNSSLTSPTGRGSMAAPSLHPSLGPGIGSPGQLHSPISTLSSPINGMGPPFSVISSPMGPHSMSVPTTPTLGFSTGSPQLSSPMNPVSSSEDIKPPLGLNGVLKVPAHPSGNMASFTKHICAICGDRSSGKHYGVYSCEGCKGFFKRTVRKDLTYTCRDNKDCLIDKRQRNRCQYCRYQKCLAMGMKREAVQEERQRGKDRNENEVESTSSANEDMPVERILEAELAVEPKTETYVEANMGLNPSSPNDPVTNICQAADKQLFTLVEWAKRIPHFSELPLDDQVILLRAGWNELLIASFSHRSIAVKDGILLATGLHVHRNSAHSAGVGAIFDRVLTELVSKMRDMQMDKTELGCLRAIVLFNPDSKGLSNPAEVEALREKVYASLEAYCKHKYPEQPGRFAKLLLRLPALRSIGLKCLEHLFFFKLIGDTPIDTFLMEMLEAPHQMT

Binder	binding signal
NRC3_wobSeed72_DR2_G18C_o1 (dsDNA) DNA 1: GCTCGAGTAGGTTACGGCGGCATTCAGGGATGAAGAGCGATTGACAGCGTAGAATGAAGG DNA 2: CCTTCATTCTACGCTGTCAATCGCTCTTCATCCCTGAATGCCGCCGTAACCTACTCGAGC	0.41 PBM z-score against 500 random probes
NRC3_wobSeed52_DR2_C21G_o1 (dsDNA) DNA 1: GCCCTACTGGGCCATCAGGTGATTGATATCAACGTTGCGATTGACAGCGTAGAATGAAGG DNA 2: CCTTCATTCTACGCTGTCAATCGCAACGTTGATATCAATCACCTGATGGCCCAGTAGGGC	0.39 PBM z-score against 500 random probes
NRC3_wobSeed2_DR0_G16C_o1 (dsDNA) DNA 1: GCCCTAGTTGGTCAACGTCACACACGCTATAGGTACGCGATTGACAGCGTAGAATGAAGG DNA 2: CCTTCATTCTACGCTGTCAATCGCGTACCTATAGCGTGTGTGACGTTGACCAACTAGGGC	0.39 PBM z-score against 500 random probes
NRC3_wobSeed27_DR1_G18A_o1 (dsDNA) DNA 1: GCACTCGGAGGACAAAGATCAGAGCTACGCCAGTGAGCGATTGACAGCGTAGAATGAAGG DNA 2: CCTTCATTCTACGCTGTCAATCGCTCACTGGCGTAGCTCTGATCTTTGTCCTCCGAGTGC	0.36 PBM z-score against 500 random probes
NRC3_wobSeed111_DR4_G11A_o1 (dsDNA) DNA 1: GCCGAACTAGATCAGAACAGGACAGTGAAGGATGATGCGATTGACAGCGTAGAATGAAGG DNA 2: CCTTCATTCTACGCTGTCAATCGCATCATCCTTCACTGTCCTGTTCTGATCTAGTTCGGC	0.34 PBM z-score against 500 random probes
NRC3_wobSeed102_DR4_G21A_o1 (dsDNA) DNA 1: GCCCTAGCAGGCCAATCTGGATCACTCAAGGCTTGAGCGATTGACAGCGTAGAATGAAGG DNA 2: CCTTCATTCTACGCTGTCAATCGCTCAAGCCTTGAGTGATCCAGATTGGCCTGCTAGGGC	0.26 PBM z-score against 500 random probes
NRC3_wobSeed119_DR4_A9T_o1 (dsDNA) DNA 1: GCGGAACGTGGGCATTCGAGTTGATAGCATGGCGATGCGATTGACAGCGTAGAATGAAGG DNA 2: CCTTCATTCTACGCTGTCAATCGCATCGCCATGCTATCAACTCGAATGCCCACGTTCCGC	0.25 PBM z-score against 500 random probes
NRC3_wobSeed17_DR0_G16A_o1 (dsDNA) DNA 1: GCATATGTAGGTTAGAGTCATTCAGAAAGTAGGGAAGCGATTGACAGCGTAGAATGAAGG DNA 2: CCTTCATTCTACGCTGTCAATCGCTTCCCTACTTTCTGAATGACTCTAACCTACATATGC	0.23 PBM z-score against 500 random probes
NRC3_wobSeed15_DR0_C13A_o1 (dsDNA) DNA 1: GCCGAACTAGGTAAAGGACAGTGAATCTCCGCACGCGCGATTGACAGCGTAGAATGAAGG DNA 2: CCTTCATTCTACGCTGTCAATCGCGCGTGCGGAGATTCACTGTCCTTTACCTAGTTCGGC	0.15 PBM z-score against 500 random probes
NRC3_wobSeed103_DR4_G21A_o1 (dsDNA) DNA 1: GCGCATATAGGTAATACAAGATGAAAGTCCGATTGTGCGATTGACAGCGTAGAATGAAGG DNA 2: CCTTCATTCTACGCTGTCAATCGCACAATCGGACTTTCATCTTGTATTACCTATATGCGC	0.11 PBM z-score against 500 random probes
NRC3_wobSeed42_DR1_G9T_o1 (dsDNA) DNA 1: GCTATACATGGTCAAAGGCCAGAGTACGAATGTCGAGCGATTGACAGCGTAGAATGAAGG DNA 2: CCTTCATTCTACGCTGTCAATCGCTCGACATTCGTACTCTGGCCTTTGACCATGTATAGC	0.08 PBM z-score against 500 random probes
NRC3_wobSeed120_DR4_G20C_o1 (dsDNA) DNA 1: GCCCGAGTAGGTTACGAGGCGGCATTCAGTGCGAATGCGATTGACAGCGTAGAATGAAGG DNA 2: CCTTCATTCTACGCTGTCAATCGCATTCGCACTGAATGCCGCCTCGTAACCTACTCGGGC	-0.27 PBM z-score against 500 random probes
NRC3_wobSeed112_DR4_G11C_o1 (dsDNA) DNA 1: GCTAGCCTAGCTCAGATCGGGCCAGTATACGCTATAGCGATTGACAGCGTAGAATGAAGG DNA 2: CCTTCATTCTACGCTGTCAATCGCTATAGCGTATACTGGCCCGATCTGAGCTAGGCTAGC	-0.54 PBM z-score against 500 random probes
